The target of test [1] is FL Amer1/WTX (pcDNA-Flag-Amer1) (not stated (human or mouse cDNA cloned)) (UniProt Q5JTC6). Put plainly: co-IP; HEK293T cells transiently transfected; immunoprecipitation with anti-GFP or anti-FLAG M2 beads, western blot.
Test [2] has as its target T1, APC–ARM, human APC (407–751), N-terminally His-tagged (human, UniProt P25054 407-751).
T1 construct: human APC, armadillo repeat (ARM) domain, residues 407–751; source: E. coli BL21(DE3), purified (Ni2+-NTA, Superdex200)
T1 sequence (looked up): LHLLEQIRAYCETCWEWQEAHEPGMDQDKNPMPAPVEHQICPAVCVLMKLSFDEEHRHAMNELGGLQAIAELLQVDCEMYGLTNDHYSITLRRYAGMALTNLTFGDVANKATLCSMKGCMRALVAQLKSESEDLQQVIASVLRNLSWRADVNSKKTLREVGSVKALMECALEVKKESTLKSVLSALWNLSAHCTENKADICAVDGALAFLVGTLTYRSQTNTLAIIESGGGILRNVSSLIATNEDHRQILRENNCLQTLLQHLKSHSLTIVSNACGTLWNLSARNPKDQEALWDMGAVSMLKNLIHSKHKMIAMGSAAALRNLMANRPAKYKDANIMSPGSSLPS
Put plainly: pull-down; competition: GST-Amer1-A2/APC–ARM complex (0.5 mg/ml, 4 ml) preloaded on the GST column at 4 °C; 0.1, 0.2, 0.5, 1 mg/ml Asef ABR-SH3 (0.5 ml) added; SDS–PAGE, Coomassie. The following applies: both partners purified.

The source of these data is paper PMC4860839, “Structures of the APC–ARM domain in complexes with discrete Amer1/WTX fragments reveal that it uses a consensus mode to recognize its binding partners” (Cell Discovery, 2015).

Chain of FL Amer1/WTX (pcDNA-Flag-Amer1) (not stated (human or mouse cDNA cloned)) (Q5JTC6 whole entry): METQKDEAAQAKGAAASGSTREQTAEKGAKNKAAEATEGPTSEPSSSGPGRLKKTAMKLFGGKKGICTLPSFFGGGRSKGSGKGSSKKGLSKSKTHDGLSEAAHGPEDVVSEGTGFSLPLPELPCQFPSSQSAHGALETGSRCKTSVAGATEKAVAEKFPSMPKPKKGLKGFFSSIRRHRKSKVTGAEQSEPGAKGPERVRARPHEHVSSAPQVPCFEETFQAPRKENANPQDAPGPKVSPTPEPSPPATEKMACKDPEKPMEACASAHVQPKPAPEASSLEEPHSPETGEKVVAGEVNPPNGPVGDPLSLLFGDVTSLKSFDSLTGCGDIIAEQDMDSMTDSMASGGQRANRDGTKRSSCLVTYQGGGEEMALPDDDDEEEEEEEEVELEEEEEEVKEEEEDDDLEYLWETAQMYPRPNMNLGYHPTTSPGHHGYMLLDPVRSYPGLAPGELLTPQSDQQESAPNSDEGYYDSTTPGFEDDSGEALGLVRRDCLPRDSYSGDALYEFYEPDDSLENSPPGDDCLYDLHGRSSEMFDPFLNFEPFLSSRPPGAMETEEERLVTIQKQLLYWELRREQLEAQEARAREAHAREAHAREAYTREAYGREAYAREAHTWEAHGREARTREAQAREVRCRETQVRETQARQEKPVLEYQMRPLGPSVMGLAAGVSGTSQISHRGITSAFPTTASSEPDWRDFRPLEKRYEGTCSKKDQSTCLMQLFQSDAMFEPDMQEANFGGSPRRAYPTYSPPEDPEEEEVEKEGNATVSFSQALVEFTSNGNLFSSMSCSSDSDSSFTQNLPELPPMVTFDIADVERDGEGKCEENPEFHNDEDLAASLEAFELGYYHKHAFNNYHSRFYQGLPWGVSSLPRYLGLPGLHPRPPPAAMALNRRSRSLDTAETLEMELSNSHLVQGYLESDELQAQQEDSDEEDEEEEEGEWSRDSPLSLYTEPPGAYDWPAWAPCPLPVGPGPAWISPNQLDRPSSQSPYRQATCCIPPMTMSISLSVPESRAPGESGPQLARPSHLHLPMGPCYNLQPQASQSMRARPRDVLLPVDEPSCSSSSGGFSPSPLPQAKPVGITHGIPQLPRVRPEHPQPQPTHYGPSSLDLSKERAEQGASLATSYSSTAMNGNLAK

“pEGFP-APC–ARM-K516E/M717K double mutant (domain or fragment)” came in with a reduction of association against wild type APC–ARM (densitometry) in test [1] of 60%.

B1: Asef-ABR-SH3 (residues 170–271) (domain or fragment, human, UniProt Q9NR80 170-271, looked up)
chain: SSSHHYSHPGGGGEQLAINELISDGSVVCAEALWDHVTMDDQELGFKAGDVIEVMDATNREWWWGRVADGEGWFPASFVRLRVNQDEPADDDAPLAGNSGAE
notes: Added as a protein at stated concentrations; its expression and purification are not described; also called ABR-SH3 domain of Asef
In the case of B1, the binding result in test [2] is recorded as “binds”.
